Numbered stars: 1 amine (or outer) side, 2 acyl side, 3 side chain; on linkers, the order of the positions; unused ones are H or OH. Bridge positions count the residues as written; N and C are the ends. Side chains are listed from the residue outwards. Ends that are not written are not given here. * marks the point of attachment. C20 diacid = O=C(O)CCCCCCCCCCCCCCCCCCC(=O)*; γGlu = O=C(O)[C@H](CCC(=O)[*:2])N[*:1]; AEEA = NCCOCCOCC(=O)O

The results in this text go back to US20140087995A1 (published 2014).

The chains are these.
T1: human calcitonin receptor (human, UniProt P30988 25-474)
T1 construct: whole, on cells; also called hCTR; hCT
T1 sequence (looked up): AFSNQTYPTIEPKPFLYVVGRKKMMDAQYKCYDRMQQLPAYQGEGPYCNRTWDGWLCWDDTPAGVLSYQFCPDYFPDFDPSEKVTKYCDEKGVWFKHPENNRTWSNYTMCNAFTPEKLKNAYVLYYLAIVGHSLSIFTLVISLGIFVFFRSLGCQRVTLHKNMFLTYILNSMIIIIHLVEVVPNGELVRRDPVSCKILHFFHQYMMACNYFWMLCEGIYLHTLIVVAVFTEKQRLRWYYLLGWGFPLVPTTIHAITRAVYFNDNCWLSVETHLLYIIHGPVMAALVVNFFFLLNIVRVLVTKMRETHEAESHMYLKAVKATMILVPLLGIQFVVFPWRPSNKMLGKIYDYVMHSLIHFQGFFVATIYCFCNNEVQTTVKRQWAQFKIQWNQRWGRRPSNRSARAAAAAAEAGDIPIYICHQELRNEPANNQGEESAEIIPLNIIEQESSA

B1: N^ε1-[2-[2-[2-(19-carboxynonadecanoylamino)ethoxy]ethoxy]acetyl]-[Arg17,Pro21,Pro27]-h-amylin (peptide)
peptide: K([AEEA-C20 diacid])CNTATCATQRLANFLRHSSPNFGAIPSSTNVGSNTY-NH2
modifications: disulfide 2-7; N-terminus assumed
SMILES: CC[C@H](C)[C@H](NC(=O)[C@H](C)NC(=O)CNC(=O)[C@H](Cc1ccccc1)NC(=O)[C@H](CC(N)=O)NC(=O)[C@@H]1CCCN1C(=O)[C@H](CO)NC(=O)[C@H](CO)NC(=O)[C@H](Cc1c[nH]cn1)NC(=O)[C@H](CCCNC(=N)N)NC(=O)[C@H](CC(C)C)NC(=O)[C@H](Cc1ccccc1)NC(=O)[C@H](CC(N)=O)NC(=O)[C@H](C)NC(=O)[C@H](CC(C)C)NC(=O)[C@H](CCCNC(=N)N)NC(=O)[C@H](CCC(N)=O)NC(=O)[C@@H](NC(=O)[C@H](C)NC(=O)[C@@H]1CSSC[C@H](NC(=O)[C@@H](N)CCCCNC(=O)COCCOCCNC(=O)CCCCCCCCCCCCCCCCCCC(=O)O)C(=O)N[C@@H](CC(N)=O)C(=O)N[C@@H]([C@@H](C)O)C(=O)N[C@@H](C)C(=O)N[C@@H]([C@@H](C)O)C(=O)N1)[C@@H](C)O)C(=O)N1CCC[C@H]1C(=O)N[C@@H](CO)C(=O)N[C@@H](CO)C(=O)N[C@H](C(=O)N[C@@H](CC(N)=O)C(=O)N[C@H](C(=O)NCC(=O)N[C@@H](CO)C(=O)N[C@@H](CC(N)=O)C(=O)N[C@H](C(=O)N[C@@H](Cc1ccc(O)cc1)C(N)=O)[C@@H](C)O)C(C)C)[C@@H](C)O
notes: also called compound 43
B2: N^-1-[(4S)-4-carboxy-4-(19-carboxynonadecanoylamino)butanoyl]-Gly[Arg1,Arg17,Pro21,Pro27,His35]-h-amylin (peptide)
peptide: {C20 diacid-γGlu}-GRCNTATCATQRLANFLRHSSPNFGAIPSSTNVGSHTY-NH2
modifications: disulfide 3-8
SMILES: CC[C@H](C)[C@H](NC(=O)[C@H](C)NC(=O)CNC(=O)[C@H](Cc1ccccc1)NC(=O)[C@H](CC(N)=O)NC(=O)[C@@H]1CCCN1C(=O)[C@H](CO)NC(=O)[C@H](CO)NC(=O)[C@H](Cc1c[nH]cn1)NC(=O)[C@H](CCCNC(=N)N)NC(=O)[C@H](CC(C)C)NC(=O)[C@H](Cc1ccccc1)NC(=O)[C@H](CC(N)=O)NC(=O)[C@H](C)NC(=O)[C@H](CC(C)C)NC(=O)[C@H](CCCNC(=N)N)NC(=O)[C@H](CCC(N)=O)NC(=O)[C@@H](NC(=O)[C@H](C)NC(=O)[C@@H]1CSSC[C@H](NC(=O)[C@H](CCCNC(=N)N)NC(=O)CNC(=O)CC[C@H](NC(=O)CCCCCCCCCCCCCCCCCCC(=O)O)C(=O)O)C(=O)N[C@@H](CC(N)=O)C(=O)N[C@@H]([C@@H](C)O)C(=O)N[C@@H](C)C(=O)N[C@@H]([C@@H](C)O)C(=O)N1)[C@@H](C)O)C(=O)N1CCC[C@H]1C(=O)N[C@@H](CO)C(=O)N[C@@H](CO)C(=O)N[C@H](C(=O)N[C@@H](CC(N)=O)C(=O)N[C@H](C(=O)NCC(=O)N[C@@H](CO)C(=O)N[C@@H](Cc1c[nH]cn1)C(=O)N[C@H](C(=O)N[C@@H](Cc1ccc(O)cc1)C(N)=O)[C@@H](C)O)C(C)C)[C@@H](C)O
notes: also called compound 47
B3: N^-1-[(4S)-4-carboxy-4-(19-carboxynonadecanoylamino)butanoyl]-Gly[Arg1,Arg17,Pro21,Pro27]-h-amylin (peptide)
peptide: {C20 diacid-γGlu}-GRCNTATCATQRLANFLRHSSPNFGAIPSSTNVGSNTY-NH2
modifications: disulfide 3-8
SMILES: CC[C@H](C)[C@H](NC(=O)[C@H](C)NC(=O)CNC(=O)[C@H](Cc1ccccc1)NC(=O)[C@H](CC(N)=O)NC(=O)[C@@H]1CCCN1C(=O)[C@H](CO)NC(=O)[C@H](CO)NC(=O)[C@H](Cc1c[nH]cn1)NC(=O)[C@H](CCCNC(=N)N)NC(=O)[C@H](CC(C)C)NC(=O)[C@H](Cc1ccccc1)NC(=O)[C@H](CC(N)=O)NC(=O)[C@H](C)NC(=O)[C@H](CC(C)C)NC(=O)[C@H](CCCNC(=N)N)NC(=O)[C@H](CCC(N)=O)NC(=O)[C@@H](NC(=O)[C@H](C)NC(=O)[C@@H]1CSSC[C@H](NC(=O)[C@H](CCCNC(=N)N)NC(=O)CNC(=O)CC[C@H](NC(=O)CCCCCCCCCCCCCCCCCCC(=O)O)C(=O)O)C(=O)N[C@@H](CC(N)=O)C(=O)N[C@@H]([C@@H](C)O)C(=O)N[C@@H](C)C(=O)N[C@@H]([C@@H](C)O)C(=O)N1)[C@@H](C)O)C(=O)N1CCC[C@H]1C(=O)N[C@@H](CO)C(=O)N[C@@H](CO)C(=O)N[C@H](C(=O)N[C@@H](CC(N)=O)C(=O)N[C@H](C(=O)NCC(=O)N[C@@H](CO)C(=O)N[C@@H](CC(N)=O)C(=O)N[C@H](C(=O)N[C@@H](Cc1ccc(O)cc1)C(N)=O)[C@@H](C)O)C(C)C)[C@@H](C)O
notes: also called compound 46
B4: N^ε-[2-[2-[2-[[(4S)-4-carboxy-4-(19-carboxynonadecanoylamino)butanoyl]amino]ethoxy]ethoxy]acetyl]Lys[Arg1,Arg17,Pro21,Pro27,His35]-h-amylin (peptide)
peptide: K([AEEA-γGlu-C20 diacid])RCNTATCATQRLANFLRHSSPNFGAIPSSTNVGSHTY-NH2
modifications: disulfide 3-8; N-terminus assumed
SMILES: CC[C@H](C)[C@H](NC(=O)[C@H](C)NC(=O)CNC(=O)[C@H](Cc1ccccc1)NC(=O)[C@H](CC(N)=O)NC(=O)[C@@H]1CCCN1C(=O)[C@H](CO)NC(=O)[C@H](CO)NC(=O)[C@H](Cc1c[nH]cn1)NC(=O)[C@H](CCCNC(=N)N)NC(=O)[C@H](CC(C)C)NC(=O)[C@H](Cc1ccccc1)NC(=O)[C@H](CC(N)=O)NC(=O)[C@H](C)NC(=O)[C@H](CC(C)C)NC(=O)[C@H](CCCNC(=N)N)NC(=O)[C@H](CCC(N)=O)NC(=O)[C@@H](NC(=O)[C@H](C)NC(=O)[C@@H]1CSSC[C@H](NC(=O)[C@H](CCCNC(=N)N)NC(=O)[C@@H](N)CCCCNC(=O)COCCOCCNC(=O)CC[C@H](NC(=O)CCCCCCCCCCCCCCCCCCC(=O)O)C(=O)O)C(=O)N[C@@H](CC(N)=O)C(=O)N[C@@H]([C@@H](C)O)C(=O)N[C@@H](C)C(=O)N[C@@H]([C@@H](C)O)C(=O)N1)[C@@H](C)O)C(=O)N1CCC[C@H]1C(=O)N[C@@H](CO)C(=O)N[C@@H](CO)C(=O)N[C@H](C(=O)N[C@@H](CC(N)=O)C(=O)N[C@H](C(=O)NCC(=O)N[C@@H](CO)C(=O)N[C@@H](Cc1c[nH]cn1)C(=O)N[C@H](C(=O)N[C@@H](Cc1ccc(O)cc1)C(N)=O)[C@@H](C)O)C(C)C)[C@@H](C)O
notes: also called compound 45
B5: N^ε1-[(4S)-4-carboxy-4-(19-carboxynonadecanoylamino)butanoyl]-[Arg17,Pro21,Pro27]-h-amylin (peptide)
peptide: K([γGlu-C20 diacid])CNTATCATQRLANFLRHSSPNFGAIPSSTNVGSNTY-NH2
modifications: disulfide 2-7; N-terminus assumed
SMILES: CC[C@H](C)[C@H](NC(=O)[C@H](C)NC(=O)CNC(=O)[C@H](Cc1ccccc1)NC(=O)[C@H](CC(N)=O)NC(=O)[C@@H]1CCCN1C(=O)[C@H](CO)NC(=O)[C@H](CO)NC(=O)[C@H](Cc1c[nH]cn1)NC(=O)[C@H](CCCNC(=N)N)NC(=O)[C@H](CC(C)C)NC(=O)[C@H](Cc1ccccc1)NC(=O)[C@H](CC(N)=O)NC(=O)[C@H](C)NC(=O)[C@H](CC(C)C)NC(=O)[C@H](CCCNC(=N)N)NC(=O)[C@H](CCC(N)=O)NC(=O)[C@@H](NC(=O)[C@H](C)NC(=O)[C@@H]1CSSC[C@H](NC(=O)[C@@H](N)CCCCNC(=O)CC[C@H](NC(=O)CCCCCCCCCCCCCCCCCCC(=O)O)C(=O)O)C(=O)N[C@@H](CC(N)=O)C(=O)N[C@@H]([C@@H](C)O)C(=O)N[C@@H](C)C(=O)N[C@@H]([C@@H](C)O)C(=O)N1)[C@@H](C)O)C(=O)N1CCC[C@H]1C(=O)N[C@@H](CO)C(=O)N[C@@H](CO)C(=O)N[C@H](C(=O)N[C@@H](CC(N)=O)C(=O)N[C@H](C(=O)NCC(=O)N[C@@H](CO)C(=O)N[C@@H](CC(N)=O)C(=O)N[C@H](C(=O)N[C@@H](Cc1ccc(O)cc1)C(N)=O)[C@@H](C)O)C(C)C)[C@@H](C)O
notes: also called compound 48

This experiment has as its target T1, human calcitonin receptor. The experiment can be described thus: SPA competition with 125I-calcitonin, membranes of BHK hCTR cells (Assay VII). Summed up:
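BHK hCTR membranes 35 ng/μL + SPA beads 0.05 mg/well; buffer 50 mM Hepes pH 7.4, 1 mM CaCl2, 5 mM MgCl₂, 0.1% OA, 0.02% Tween20. 120 min, 25° C., shaking. Scintillation count; IC50 by one-site binding competition.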
Regarding B1, the IC50 (commonly the concentration that inhibits the measured activity by half) stood at 2.64 nM.
Take B2: the IC50 was 15.5 nM.
As for B3, the IC50 is 9.53 nM.
As for B4, the IC50 is 14.8 nM.
Next, B5: 30.9 nM.
